In patent US20250213686A1, “COMPOSITIONS AND METHODS FOR ENGINEERING TREG CELLS FOR TREATMENT OF DIABETES” (Seattle Children's Hospital (dba Seattle Children's …, priority 2021, published 2025):

B1: T1D4 TCR: TCR specific to IGRP 241-260; TCRα SEQ ID NO: 19, TCRβ SEQ ID NO: 20 (protein)
alpha: MKSLRVLLVILWLQLSWVWSQKDQVFQPSTVASSEGAVVEIFCNHSVSNAYNFFWYLHFPGCAPRLLVKGSKPSQQGRYNMTYERFSSSLLILQVREADAAVYYCAVEDLNQAGTALIFGKGTTLSVSSNIQNPDPAVYQLRDSKSSDKSVCLFTDFDSQTNVSQSKDSDVYITDKTVLDMRSMDFKSNSAVAWSNKSDFACANAFNNSIIPEDTFFPSPGKGSFGAFAGCFLASGMARFCPELWSMMSKTPLIGGLG
beta: MGSRLLCWVLLCLLGAGPVKAGVTQTPRYLIKTRGQQVTLSCSPISGHRSVSWYQQTPGQGLQFLFEYFSETQRNKGNFPGRFSGRQFSNSRSEMNVSTLELGDSALYLCASSLALGQGNQQFFGPGTRLTVLEDLKNVFPPEVAVFEPSEAEISHTQKATLVCLATGFYPDHVELSWWVNGKEVHSGVSTDPQPLKEQPALNDSRYCLSSRLRVSATFWQNPRNHFRCQVQFYGLSENDEWTQDRAKPVTQIVSAEAWGRADCGFTSESYQQGVLSATILYEILLGKATLYAVLVSALVLMAMVKRKDSRG
B2: T1D2 TCR: TCR specific to IGRP 305-324, HLA-DR0401 restricted; TCRα SEQ ID NO: 9, TCRβ SEQ ID NO: 10 (protein)
alpha: MAMLLGASVLILWLQPDWVNSQQKNDDQQVKQNSPSLSVQEGRISILNCDYTNSMFDYFLWYKKYPAEGPTFLISISSIKDKNEDGRFTVFLNKSAKHLSLHIVPSQPGDSAVYFCAATRTSGTYKYIFGTGTRLKVLANIQNPDPAVYQLRDSKSSDKSVCLFTDFDSQTNVSQSKDSDVYITDKTVLDMRSMDFKSNSAVAWSNKSDFACANAFNNSIIPEDTFFPSPGKGSFGAFAGCFLASGMARFCPELWSMMSKTPLIGGLG
beta: MSISLLCCAAFPLLWAGPVNAGVTQTPKFRILKIGQSMTLQCTQDMNHNYMYWYRQDPGMGLKLIYYSVGAGITDKGEVPNGYNVSRSTTEDFPLRLELAAPSQTSVYFCASSPWGAGGTDTQYFGPGTRLTVLEDLKNVFPPEVAVFEPSEAEISHTQKATLVCLATGFYPDHVELSWWVNGKEVHSGVSTDPQPLKEQPALNDSRYCLSSRLRVSATFWQNPRNHFRCQVQFYGLSENDEWTQDRAKPVTQIVSAEAWGRADCGFTSESYQQGVLSATILYEILLGKATLYAVLVSALVLMAMVKRKDSRG
B3: T1D5-1 TCR: TCR specific to IGRP 305-324; TCRα SEQ ID NO: 29, TCRβ SEQ ID NO: 30 (protein)
alpha: MLLITSMLVLWMQLSQVNGQQVMQIPQYQHVQEGEDFTTYCNSSTTLSNIQWYKQRPGGHPVFLIQLVKSGEVKKQKRLTFQFGEAKKNSSLHITATQTTDVGTYFCAGQTGANNLFFGTGTRLTVIPYIQNPDPAVYQLRDSKSSDKSVCLFTDFDSQTNVSQSKDSDVYITDKTVLDMRSMDFKSNSAVAWSNKSDFACANAFNNSIIPEDTFFPSPGKGSFGAFAGCFLASGMARFCPELWSMMSKTPLIGGLG
beta: MGCRLLCCAVLCLLGAVPMETGVTQTPRHLVMGMTNKKSLKCEQHLGHNAMYWYKQSAKKPLELMFVYSLEERVENNSVPSRFSPECPNSSHLFLHLHTLQPEDSALYLCASSQEVGTVPNQPQHFGDGTRLSILEDLNKVFPPEVAVFEPSEAEISHTQKATLVCLATGFFPDHVELSWWVNGKEVHSGVSTDPQPLKEQPALNDSRYCLSSRLRVSATFWQNPRNHFRCQVQFYGLSENDEWTQDRAKPVTQIVSAEAWGRADCGFTSVSYQQGVLSATILYEILLGKATLYAVLVSALVLMAMVKRKDF

Columns and labels:
Assay type in all cases: cell-based, human
[1] = test system: cognate peptide (IGRP305-324, IGRP241-260, PPI76-90) and APC; experiment: Peptide dose response (functional avidity) of TCR-transduced CD4+ T cells; settings: for IGRP305-324 peptide concentration at which proliferation was reached: T1D5-1: similar to about 70% proliferation, T1D2: proliferation only at this concentration
Text: FIG. 39A depicts a graph showing peptide dose response of T cells expressing T1D2, T1D4, or PPI76 TCR. CD4+ T cells transduced with T1D2, T1D4, or PPI76 TCR were co-cultured with APC in the presence of various concentration of their cognate peptide, IGRP305-324, IGRP241-260, PPI76-90, respectively for 4 days. Representative of three independent experiments.
FIG. 39C depicts a graph showing peptide dose response of T cells expressing T1D2, T1D5-1, or T1D5-2 TCR. CD4+ T cells transduced with T1D2, T1D5-1 or T1D5-2 TCR were co-cultured with APC in the presence of various concentration of their cognate peptide, IGRP305-324 for 4 days. Representative of three independent experiments. For dose response of T cells in A and C, T cells were labeled with CTV before the co-culture and cell proliferation was measured by CTV dilution.
Therefore, these unique features were used as way to begin to explore the impact of TCR affinity on islet-specific EngTregs function. […] We measured proliferation of polyclonal islet-specific Teff in the presence of islet-specific peptides and mDC and EngTregs with T1D2, T1D4 or PPI76. The data were normalized by suppressive activity obtained from suppression assay set up in parallel using CD3/CD28 beads (FIG. 39G). This latter assay provided a baseline control for EngTreg function, as this activation method is not impacted by TCR avidity. […] We then compared T1D2, T1D5-1 and T1D5-2, each of which recognize the same cognate peptide, IGRP305-324, in the context of HLA-DR0401 (Table E6-1) (31). […] Similarly, we measured suppressive capacity of EngTregs expressing T1D2, T1D5-1, or T1D5-2 on proliferation of polyclonal islet Teff in response to islet-specific peptides.

[2] = test system: IGRP 305-324 or IGRP 241-260 peptide presented by HLA-DR4-expressing K562 cells; experiment: Cytokine production of TCR-transduced CD4+ T cells to cognate peptide; settings: 5 hours stimulation with cognate peptide, day 14
Experimental: (§1) FIGS. 29A-29E show editing of CD4+ T cells to express one of a panel of TCRs, and phenotypic characterization of edited cells.
On day 14, transduced CD4+ T cells were stimulated for 5 hours with cognate IGRP peptide in the presence of transduced K562 cells, and the production of cytokines IFN-γ and TNF-α to evaluate T cell activation (FIG. 29D).

[3] = test system: IGRP 305-324 or IGRP 241-260 peptide presented by HLA-DR4-expressing K562 cells; experiment: Activation marker response of TCR-transduced CD4+ T cells to cognate peptide; settings: for cognate peptide concentration required for maximal surface marker expression: relative to cells expressing T1D5-1; for upregulation of functional markers CD154, CD69 and CD137: stimulation with cognate peptide overnight, day 8
Experimental: as §1
FIGS. 30A-30B show dose response of T1D TCR-expressing CD4+ T cells to stimulation with IGRP 305-324 peptide. Cells were cultured in the presence of HLA-DR4-expressing K562 cells for a 20 hours, and analyzed by flow cytometry. […] Dashed lines=50% maximum response of each cell population (by donor).
CD4+ cells were thawed and stimulated with anti-CD3/CD28 Dynabeads in vitro (day 0). On day 1 post-thawing, cells were inoculated with a lentivirus encoding a T1D2, T1D5-1, or T1D4 TCR (day 1). On day 3 post-thaw, Dynabeads were removed. In parallel, artificial antigen-presenting cells were generated by transducing K562 cells with a lentivirus encoding an HLA-DR4 capable of presenting IGRP 305-324 or IGRP 241-260. On day 7 post-thaw, transduced CD4+ T cells were stimulated by addition of a given amount of cognate IGRP peptide in the presence of transduced K562 cells and culture overnight. On day 8 post-thaw, expression of activation-associated markers CD69, CD137, and CD154 (FIG. 29B).
In another experiment, CD4+ T cells transduced with a lentivirus encoding T1D2 TCR or control TCR (ZNT266) were cultured in a 3:1 ratio with K562 cells pulsed with IGRP 305-324 peptide at a range of concentrations, as described in the preceding paragraph. After 20 hours of co-culture, expression of surface markers CD154 and CD137 were analyzed by flow cytometry, to quantify sensitivity of T1D2 TCR-expressing cells to cognate peptide IGRP 305-324.

[4] = test system: T1D2 TCR-expressing CD4+ T cells; experiment: Alanine-substituted and potential off-target peptide stimulation of T1D2 TCR cells
Experimental: FIGS. 31A-31D show tolerance of T1D2 to substitutions in IGRP 305-324 peptide. FIGS. 31A and 31B show activation of T1D2 TCR-expressing CD4+ T cells, as measured by CD154 expression intensity (FIG. 31A) or % CD137-expressing cells (FIG. 31B) in the presence of antigen-presenting cells pulsed with one of a panel of alanine-substituted peptides. T cells were cultured for 20 hours in the presence of HLA-DR4-expressing K562 cells that had been pulsed with IGRP 305-324 peptide, or one of a panel of peptides having an alanine substitution at different positions, and analyzed by flow cytometry. FIGS. 31C and 31D show activation of T1D2 TCR-expressing CD4+ T cells, as measured by CD154 expression intensity (FIG. 31C) or % CD137-expressing cells (FIG. 31D) in the presence of antigen-presenting cells pulsed with one of a panel of potential off-target peptides derived from pathogens of human relevance. “Control” indicates CD4+ T cells expressing ZNT266 TCR. […]
After 20 hours of co-culture, expression of surface markers CD154 and CD137 (among CD3+CD4+ cells) were analyzed by flow cytometry, to quantify the potential for off-target activation of cells expressing T1D2 TCR. […]

[5] = IGRP 305-324, 20 hours co-culture, 3:1 with K562 cells

| Molecule | cognate peptide concentration giving similar (more than 20%) proliferation [1] [µg/mL] | IFN-γ and TNF-α production [2] | cognate peptide concentration required for maximal surface marker expression [3] | upregulation of functional markers CD154, CD69 and CD137 [3] | IGRP305-324 peptide concentration at which proliferation was reached [1] [µg/mL] | functional avidity ([1]; comparison of T1D2, T1D4 and PPI76 TCR) | functional avidity ([1]; comparison of T1D2, T1D5-1 and T1D5-2 (same cognate peptide IGRP305-324)) | recognition of predicted potential off-target peptides derived from human pathogens [4] | EC50 of % CD137-expressing cells [3, 5] [µg/mL] | EC50 of CD154 expression [3, 5] [µg/mL] | sensitivity to stimulation with cognate peptide IGRP 305-324 ([3]; compared to cells expressing ZNT266 TCR) |
| --- | --- | --- | --- | --- | --- | --- | --- | --- | --- | --- | --- |
| B1 | 0.1 | dose-dependent manner | Lower concentrations of cognate peptide were required | dose-dependent manner | – | – | – | – | – | – | – |
| B2 | – | dose-dependent manner | Lower concentrations of cognate peptide were required | dose-dependent manner | 3 | lowest functional avidity among the three TCRs | lowest functional avidity | does not recognize any | 0.03 to 0.1 | 0.1 to 0.3 | substantially more sensitive |
| B3 | – | dose-dependent manner | – | dose-dependent manner | 1.0 | – | – | – | – | – | – |
